Assay results as given in paper PMC5048913.

What was measured:
Experiment in all cases: split reporter
[1] = biological target: Yn-fused MDM2, wild type (FLAG-tagged MDM2-Yn) (UniProt Q00987)
[2] = biological target: M2-dAZ-Yn (Yn-fused MDM2 deleted of the AZ domain) (UniProt Q00987)
[3] = biological target: M2-dIAZ-Yn (Yn-fused MDM2 deleted of the I1 and AZ domains) (UniProt Q00987)

Yc-fused NS, wild type (Myc-tagged NS-Yc), sequence (Q9BVP2 whole entry, the tested form may be a part): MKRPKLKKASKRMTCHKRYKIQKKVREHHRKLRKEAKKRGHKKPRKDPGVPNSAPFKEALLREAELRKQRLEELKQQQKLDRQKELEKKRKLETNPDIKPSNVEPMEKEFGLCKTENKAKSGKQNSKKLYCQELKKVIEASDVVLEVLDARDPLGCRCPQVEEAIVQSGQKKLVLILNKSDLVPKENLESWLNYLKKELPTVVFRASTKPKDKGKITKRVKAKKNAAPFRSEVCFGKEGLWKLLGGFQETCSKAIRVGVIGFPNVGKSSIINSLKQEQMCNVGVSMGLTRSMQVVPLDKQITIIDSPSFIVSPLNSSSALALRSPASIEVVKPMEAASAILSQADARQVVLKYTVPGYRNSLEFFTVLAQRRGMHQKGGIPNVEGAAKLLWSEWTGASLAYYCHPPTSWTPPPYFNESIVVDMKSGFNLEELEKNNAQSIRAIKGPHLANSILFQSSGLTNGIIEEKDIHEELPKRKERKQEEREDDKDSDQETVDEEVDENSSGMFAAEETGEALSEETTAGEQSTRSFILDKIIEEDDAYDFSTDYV
NS-GI-Yc (Yc-fused NS deleted of the BC and A domains), sequence (Q9BVP2 116-464, stated change not applied): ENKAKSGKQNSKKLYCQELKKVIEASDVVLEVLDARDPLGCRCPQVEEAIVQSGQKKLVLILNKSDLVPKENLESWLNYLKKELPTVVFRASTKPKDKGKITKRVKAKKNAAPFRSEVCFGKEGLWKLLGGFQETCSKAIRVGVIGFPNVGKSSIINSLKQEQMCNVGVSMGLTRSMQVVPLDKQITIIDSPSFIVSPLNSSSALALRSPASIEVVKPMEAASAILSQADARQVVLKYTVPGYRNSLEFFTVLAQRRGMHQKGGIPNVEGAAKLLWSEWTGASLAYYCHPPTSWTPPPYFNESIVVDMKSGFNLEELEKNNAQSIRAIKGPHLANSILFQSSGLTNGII

| BiFC efficiency (percent YFP+ cells in the CFP+ population) [1] | BiFC efficiency (percent YFP+ cells in the CFP+ population) [2] | BiFC efficiency (percent YFP+ cells in the CFP+ population) [3] | Substance |
| --- | --- | --- | --- |
| 27.2% | – | – | NS-GI-Yc (Yc-fused NS deleted of the BC and A domains) (from UniProt Q9BVP2 116-464) (domain or fragment) |
| 48.7% | 15% | 9.4% | Yc-fused NS, wild type (Myc-tagged NS-Yc) (from UniProt Q9BVP2 1-549) (natural protein) |
